# In US20260022175A1 (Chugai, published 2026):
# T1: human FcγRIIa H extracellular domain (human, UniProt P12318 34-217)
# T1 construct: extracellular domain; also called hFcγR IIa H
# T1 sequence (looked up): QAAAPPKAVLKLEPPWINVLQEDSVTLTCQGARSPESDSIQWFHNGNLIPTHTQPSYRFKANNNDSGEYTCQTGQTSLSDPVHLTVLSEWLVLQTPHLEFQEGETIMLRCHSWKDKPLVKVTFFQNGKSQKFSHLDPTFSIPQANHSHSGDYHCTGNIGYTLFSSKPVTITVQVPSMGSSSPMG
# T2: human FcγRIIa R extracellular domain (human, UniProt P12318 34-217)
# T2 construct: extracellular domain; also called hFcγR IIa R
# T2 sequence (looked up): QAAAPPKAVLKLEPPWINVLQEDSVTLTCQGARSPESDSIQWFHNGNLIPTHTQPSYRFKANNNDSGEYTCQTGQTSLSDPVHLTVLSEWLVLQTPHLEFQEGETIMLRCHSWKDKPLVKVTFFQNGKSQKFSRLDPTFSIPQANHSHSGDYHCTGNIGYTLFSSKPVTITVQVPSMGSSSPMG
# T3: human FcγRIIb extracellular domain (human, UniProt P31994 43-217)
# T3 construct: extracellular domain; also called hFcγR IIb
# T3 sequence (looked up): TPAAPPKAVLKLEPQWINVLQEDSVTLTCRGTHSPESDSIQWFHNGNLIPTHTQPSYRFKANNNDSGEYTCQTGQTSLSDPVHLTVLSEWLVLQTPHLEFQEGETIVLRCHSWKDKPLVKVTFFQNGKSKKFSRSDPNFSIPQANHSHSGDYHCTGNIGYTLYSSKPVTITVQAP
# T4: hFcγRIIaH on hFcγRIIaH-expressing Jurkat cells (human, UniProt P12318 34-317)
# T4 sequence (looked up): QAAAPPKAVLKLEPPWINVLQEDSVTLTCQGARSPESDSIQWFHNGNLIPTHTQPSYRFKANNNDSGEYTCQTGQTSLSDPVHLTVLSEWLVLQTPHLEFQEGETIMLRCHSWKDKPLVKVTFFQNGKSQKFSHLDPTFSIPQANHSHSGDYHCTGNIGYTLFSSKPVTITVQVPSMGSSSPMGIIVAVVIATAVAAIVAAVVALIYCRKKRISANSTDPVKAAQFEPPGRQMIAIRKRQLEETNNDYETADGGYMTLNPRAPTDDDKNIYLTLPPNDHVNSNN
# How the values were obtained:
# [1] = target: T5, mCTLA4-His (mouse CTLA4 extracellular region linked with a His-tag) (mouse, UniProt P09793 36-161); test: SPR 37C, ATP 10 µM
# [2] = target: T5, mCTLA4-His (mouse CTLA4 extracellular …); test: SPR 37C, ATP 100 µM
# [3] = target: T5, mCTLA4-His (mouse CTLA4 extracellular …); test: SPR 37C, ATP 100 µM; remark: listed apart in the source
# [4] = target: T6, human FcγRIIIa F extracellular domain (human, UniProt P08637 17-208); test: SPR Biacore 8K+, antibody captured, FcγR as analyte, 1:1 Langmuir model; hFcγR IIIa F allotype
# T6 construct: extracellular domain; also called hFcγR IIIa F
# T6 sequence (P08637 17-208): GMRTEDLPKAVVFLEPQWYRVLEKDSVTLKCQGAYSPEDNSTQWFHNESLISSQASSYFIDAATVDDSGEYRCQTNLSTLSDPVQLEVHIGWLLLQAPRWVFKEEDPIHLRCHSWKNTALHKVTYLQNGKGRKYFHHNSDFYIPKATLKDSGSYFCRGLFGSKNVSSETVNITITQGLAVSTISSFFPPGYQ
# [5] = target: T1, human FcγRIIa H extracellular domain; test: SPR Biacore 8K+; KD for FcγRIIb divided by KD for this FcγR;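 further: antibodies captured on an anti-human Fab kappa SA chip with soluble human FcγR ectodomains flowed over, FcγRIIb KD from steady-state fit, other FcγR KD from Langmuir model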
# [6] = target: T2, human FcγRIIa R extracellular domain; test: as above
# [7] = target: T7, human FcγRIIIa V extracellular domain (human, UniProt P08637 17-208); test: as above
# T7 construct: extracellular domain; also called hFcγR IIIa V
# T7 sequence (P08637 17-208 F176V limits assumed): as the sequence (P08637 17-208) above, with F160V counted along it
# [8] = target: T6, human FcγRIIIa F extracellular domain; test: as above
# [9] = target: T7, human FcγRIIIa V extracellular domain; test: SPR Biacore 8K+, antibody captured, FcγR as analyte, 1:1 Langmuir model; hFcγR IIIa V allotype
# [10] = target: T1, human FcγRIIa H extracellular domain; test: SPR Biacore 8K+, antibody captured, FcγR as analyte, 1:1 Langmuir model;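 further: antibodies captured on a streptavidin chip through a biotinylated anti-human Fab kappa reagent, with FcγR extracellular domains injected in pH 7.4 phosphate buffer at 25 °C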
# [11] = target: T2, human FcγRIIa R extracellular domain; test: as above
# [12] = target: T8, human FcγRIa extracellular domain (human, UniProt P12314 16-292); test: as above
# T8 construct: extracellular domain; also called hFcγR Ia; hFcγRIa
# T8 sequence (P12314 16-292): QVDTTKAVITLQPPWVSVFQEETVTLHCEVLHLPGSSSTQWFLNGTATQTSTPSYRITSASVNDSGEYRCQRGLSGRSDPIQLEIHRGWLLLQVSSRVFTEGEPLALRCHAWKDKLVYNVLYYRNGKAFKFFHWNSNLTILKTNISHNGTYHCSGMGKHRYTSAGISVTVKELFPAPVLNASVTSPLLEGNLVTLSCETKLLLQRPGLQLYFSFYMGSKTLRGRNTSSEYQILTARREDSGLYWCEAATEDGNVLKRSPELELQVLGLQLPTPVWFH
# [13] = target: hFcγRIIIaV on hFcγRIIIaV-expressing Jurkat cells (human, UniProt P08637 17-254); test: cell-based or functional assay
# Chain of hFcγRIIIaV on hFcγRIIIaV-expressing Jurkat cells (P08637 17-254, form in doubt): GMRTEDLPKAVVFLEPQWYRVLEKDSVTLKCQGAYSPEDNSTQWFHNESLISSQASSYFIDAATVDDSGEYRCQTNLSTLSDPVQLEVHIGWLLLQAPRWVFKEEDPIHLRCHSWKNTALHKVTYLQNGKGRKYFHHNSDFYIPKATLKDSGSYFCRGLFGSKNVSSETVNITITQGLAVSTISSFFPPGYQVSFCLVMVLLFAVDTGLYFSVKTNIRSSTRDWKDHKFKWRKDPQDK
# [14] = target: T3, human FcγRIIb extracellular domain; test: SPR Biacore 8K+, antibody captured, FcγR as analyte, steady state affinity model
# [15] = target: T1, human FcγRIIa H extracellular domain; test: SPR Biacore 8K+; KD of G1d divided by KD of this antibody;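 further: antibodies captured on an anti-Fab-kappa streptavidin chip, soluble FcγR ectodomains flowed over, KD by steady-state fit for FcγRIIb and Langmuir kinetic model for the other receptors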
# [16] = target: T2, human FcγRIIa R extracellular domain; test: as above
# [17] = target: T8, human FcγRIa extracellular domain; test: as above
# [18] = target: T7, human FcγRIIIa V extracellular domain; test: as above
# [19] = target: T6, human FcγRIIIa F extracellular domain; test: as above
# [20] = target: T3, human FcγRIIb extracellular domain; test: as above
# [21] = target: T4, hFcγRIIaH on hFcγRIIaH-expressing …; test: cell-based or functional assay
binder,measurement,setting,value
"04H1208-G1m/04L1407-k0MT (antibody, human IgG1, kappa, V domains shown) VH: EVQLVESGGGLVKPGGSLRLSCAASGFTFSSKTMNWVRQAPGKGLEWVSSISTRSGYIYYARSVKGRFTISRDNAKNSLYLQMNSLRAEDTAVYYCARYGKREDMLWVFDYWGQGTLVTVSS VL: DIVMTQSPLSLPVTPGEPASISCDGPSTDVGDYNWVHWYQQKPGQAPRLLIYYTSSKPEGVPDRFSGSGSGTDFTLKISRVEAEDVGVYYCQTYAAPLGPTFGQGTKLEIKR",Kd,[1],84 nM
same,Kd,[2],16 nM
same,fold weaker than its binding ability to human CTLA4,[3],~2 times
"H240-Kn037/L73-k0//H240-Hl036/L73-k0 (antibody, human IgG1, kappa, also called EGL-GASDIE; GASDIE) heavy 1: QDQLVQSGAEVKKPGASVKVSCKASGFNIKDTYIQWVRQAPGQGLEWMGRIDPLRKQTKYREKFEGRVTITADTSTNTAYMELSSLRSEDTAVYYCVRSGREFDYWGQGTLVTVSSASTKGPSVFPLAPSSKSTSGGTAALGCLVKDYFPEPVTVSWNSGALTSGVHTFPAVLQSSGLYSLSSVVTVPSSSLGTQTYICNVNHKPSNTKVDKKVEPKSCDKTHTCPPCPAPELLAGPDVFLFPPKPKDTLMISRTPEVTCVVVDVSHEDPEVKFNWYVDGVEVHNAKTKPREEQYNSTYRVVSVLTVLHQDWLNGKEYKCKVSNKALPAPEEKTISKAKGQPREPQVCTLPPSRDELTKNQVSLWCLVKGFYPSDIAVEWESNGQPENNYKTTPPVLDSDGSFFLYSKLTVDKSRWQQGNVFSCSVMHEALHNHYTQKSLSLSP heavy 2: QDQLVQSGAEVKKPGASVKVSCKASGFNIKDTYIQWVRQAPGQGLEWMGRIDPLRKQTKYREKFEGRVTITADTSTNTAYMELSSLRSEDTAVYYCVRSGREFDYWGQGTLVTVSSASTKGPSVFPLAPSSKSTSGGTAALGCLVKDYFPEPVTVSWNSGALTSGVHTFPAVLQSSGLYSLSSVVTVPSSSLGTQTYICNVNHKPSNTKVDKKVEPKSCDKTHTCPPCPAPELLAGPDVFLFPPKPKDTLMISRTPEVTCVVVDVSHEDPEVKFNWYVDGVEVHNAKTKPREEQYNSTYRVVSVLTVLHQDWLNGKEYKCKVSNKALPAPEEKTISKAKGQPREPQVYTLPPSRCELTKNQVSLSCAVKGFYPSDIAVEWESNGQPENNYKTTPPVLDSDGSFFLVSKLTVDKSRWQQGNVFSCSVMHEALHNHYTQKSLSLSP light: DIQMTQSPSSLSASVGDRVTITCRASQDIHKYIAWYQQKPGQAPRLLIQYTSTLQPGVPSRFSGSGSGTDYTFTISSLQPEDIATYYCLQYEQLRTFGGGTKVEIKRTVAAPSVFIFPPSDEQLKSGTASVVCLLNNFYPREAKVQWKVDNALQSGNSQESVTEQDSKDSTYSLSSTLTLSKADYEKHKVYACEVTHQGLSSPVTKSFNRGEC",Kd,[4],66.1 nM
same,A/I ratio (KD for FcγRIIb divided by KD for each FcγR),[5],18.2
same,A/I ratio (KD for FcγRIIb divided by KD for each FcγR),[6],18.6
same,A/I ratio (KD for FcγRIIb divided by KD for each FcγR),[7],52.6
same,A/I ratio (KD for FcγRIIb divided by KD for each FcγR),[8],18.9
same,Kd,[9],23.8 nM
same,Kd,[10],68.6 nM
same,Kd,[11],67 nM
same,Kd,[12],0.0145 nM
same,"EC50 value (hFcγRIIIaV ADCC Reporter Bioassay, Hepa1-6/hEREG target cells)",[13],3.7 ng/mL
same,Kd,[14],1250 nM
same,Relative value to KD between G1d and hFcgRs,[15],16.4
same,Relative value to KD between G1d and hFcgRs,[16],24.7
same,Relative value to KD between G1d and hFcgRs,[17],6.2
same,Relative value to KD between G1d and hFcgRs,[18],15.1
same,Relative value to KD between G1d and hFcgRs,[19],44.7
same,Relative value to KD between G1d and hFcgRs,[20],8
same,"EC50 value (hFcγRIIaH ADCP Reporter Bioassay, Hepa1-6/hEREG target cells)",[21],14.9 ng/mL
